Experimental data: patent US20100222258A1 (KABUSHIKI KAISHA HAYASHIBARA SEIBUTSU KAGAKU KENKYUJO, published 2010)
One block for each binder: values may come before it.

Tests used:
[1] = target: T1, TNF-R2 (a protein having the amino acid sequence, Accession No. M55994 registered at GENBANK) (UniProt P20333 23-257, limits assumed); assay: SPR (BIACORE 2000), receptor on sensor tip; grade 3 = 0.5 to 2 times that of recombinant TNF-α
T1 construct: also called TNF receptor with 75 kilo daltons
T1 sequence (looked up): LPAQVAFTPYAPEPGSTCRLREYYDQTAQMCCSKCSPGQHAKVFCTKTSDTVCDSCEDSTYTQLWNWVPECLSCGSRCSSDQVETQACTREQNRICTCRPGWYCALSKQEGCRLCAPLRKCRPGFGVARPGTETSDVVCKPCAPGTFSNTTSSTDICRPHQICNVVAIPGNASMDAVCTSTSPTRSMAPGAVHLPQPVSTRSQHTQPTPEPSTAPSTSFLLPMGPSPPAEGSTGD
Excerpt: (§1) Using the above detector based on surface plasmon resonance effect again, the resulting clones binding to TNF-R1 (or TNF-R2) were subjected to the remaining sensor tip conjugated with TNF-R2 (or TNF-R1) to measure receptor binding affinity and select clones having a variation of receptor binding affinity. […] The resulting DNAs were digested with restrict enzymes NdeI and BamHI to obtain DNA fragments. The resulting DNA fragments were introduced into a plasmid vector containing T7 promoter region, T7 terminator region, ampicillin resistant gene region and ColE1/Ori region (product name “pET-3a”, manufactured by “Novagen®” (EMD Biosciences, Inc.)) at the position of the above restriction sites. The resulting plasmid was introduced into E. coli BL21DE3 strain to obtain a transformed E. coli for producing the TNF mutant proteins. The obtained transformed E. coli was cultured according to usual method and centrifuged to collect E. coli pellet. The resulting pellet was washed twice with TES buffer (pH 8.0) (20 mM Tris-HCl, 10 mM ethylene diamine tetraacetic acid and 0.5 M sodium chloride) and admixed with TES buffer (pH 8.0) containing 0.2 mg/ml lysozyme. The resulting suspension was sonicated according to usual manner, and centrifuged to collect a precipitate containing the produced TNF mutant protein. The resulting precipitate was treated three times in a manner of admixing with TES buffer containing 1 (w/w) % Triton X-100, removed from supernatant by centrifuging, admixed with 50 mM Tris-HCl (pH 7.0) containing 8 M guanidine hydrochloride and 50 mM dithiothreitol, with stirring for 16 hours at ambient temperature under shielded condition, and centrifuged to collect a supernatant. The resulting supernatant was gently admixed with 100 time volumes of a aqueous solution containing 1 M Tris, 0.9 (w/v) % sodium chloride, 0.4 M L-arginine chloride, 2.5 mM reduced glutathione, 0.5 mM oxidized glutathione and 0.05 (w/v) % Tween 20, and kept at 4° C. for 16 hours.

[2] = target: T2, TNF-R1 (a protein having the amino acid sequence, Accession No. M58286 registered at GENBANK) (UniProt P19438 30-211, limits assumed); assay: as above
T2 construct: also called TNF receptor having a molecular weight of 55 kilo daltons
T2 sequence (looked up): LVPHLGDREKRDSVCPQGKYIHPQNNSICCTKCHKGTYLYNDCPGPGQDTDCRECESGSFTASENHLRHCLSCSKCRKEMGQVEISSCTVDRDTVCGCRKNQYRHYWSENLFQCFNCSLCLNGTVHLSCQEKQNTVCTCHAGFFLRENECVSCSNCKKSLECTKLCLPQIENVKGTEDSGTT
Excerpt: as §1

[3] = target: T1, TNF-R2 (a protein having the amino acid …); assay: SPR (BIACORE 2000), receptor on sensor tip; grade 4 = two times or more that of recombinant TNF-α
Excerpt: as §1

[4] = target: T2, TNF-R1 (a protein having the amino acid …); assay: SPR (BIACORE 2000), receptor on sensor tip; grade 2 = 0.5 to 0.1 time that of recombinant TNF-α
Excerpt: as §1

[5] = target: T1, TNF-R2 (a protein having the amino acid …); assay: SPR (BIACORE 2000), receptor on sensor tip; grade 0 = weakened to 0.001 or less of that of recombinant TNF-α
Excerpt: as §1

[6] = target: T2, TNF-R1 (a protein having the amino acid …); assay: SPR (BIACORE 2000), receptor on sensor tip; grade 1 = 0.001 to 0.1 time that of recombinant TNF-α
Excerpt: as §1

[7] = target: T2, TNF-R1 (a protein having the amino acid …); assay: SPR (BIACORE 2000), receptor on sensor tip; grade 4 = two times or more that of recombinant TNF-α
Excerpt: as §1

[8] = target: T3, TNF-R1 on L-M cells (mouse, UniProt P25118 30-454); assay: cell-based or functional assay
T3 sequence (looked up): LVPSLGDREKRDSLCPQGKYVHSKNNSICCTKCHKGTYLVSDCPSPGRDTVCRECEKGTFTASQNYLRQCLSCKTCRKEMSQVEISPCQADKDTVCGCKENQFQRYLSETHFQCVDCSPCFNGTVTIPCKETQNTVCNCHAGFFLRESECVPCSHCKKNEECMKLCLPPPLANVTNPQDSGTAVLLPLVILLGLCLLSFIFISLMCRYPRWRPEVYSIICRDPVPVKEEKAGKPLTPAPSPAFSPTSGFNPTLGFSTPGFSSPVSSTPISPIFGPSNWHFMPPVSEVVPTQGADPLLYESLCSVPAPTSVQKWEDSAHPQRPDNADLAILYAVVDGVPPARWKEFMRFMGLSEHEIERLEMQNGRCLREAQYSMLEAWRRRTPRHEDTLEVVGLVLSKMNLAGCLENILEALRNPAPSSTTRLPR

[9] = target: T4, TNF-R1 on HEp-2 cells (human, UniProt P19438 30-455); assay: cell-based or functional assay
T4 sequence (looked up): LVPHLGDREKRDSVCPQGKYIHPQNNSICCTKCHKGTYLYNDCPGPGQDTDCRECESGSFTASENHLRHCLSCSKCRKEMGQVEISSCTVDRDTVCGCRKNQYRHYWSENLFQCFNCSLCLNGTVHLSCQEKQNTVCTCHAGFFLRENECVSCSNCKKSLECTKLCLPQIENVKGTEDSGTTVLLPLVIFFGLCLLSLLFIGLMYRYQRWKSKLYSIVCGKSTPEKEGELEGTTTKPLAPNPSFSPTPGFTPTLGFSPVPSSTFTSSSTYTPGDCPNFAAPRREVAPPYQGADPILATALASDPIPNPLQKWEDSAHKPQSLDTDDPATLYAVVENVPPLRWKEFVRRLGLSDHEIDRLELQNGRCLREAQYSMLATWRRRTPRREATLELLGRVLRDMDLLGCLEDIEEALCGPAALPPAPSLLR

[10] = target: T1, TNF-R2 (a protein having the amino acid …); assay: SPR (BIACORE 2000), receptor on sensor tip; grade 1 = 0.001 to 0.1 time that of recombinant TNF-α
Excerpt: as §1

B1: lysine-replaced human TNF (ligand)
chain: VRSSSRTPSDMPVAHVVANPQAEGQLQWLNRRANALLANGVELRDNQLVVPSEGLYLIYSQVLFSGQGCPSTHVLLTHTISRIAVSYQTPVNLLSAIRSPCQRETPEGAEANPWYEPIYLGGVFQLEPGDRLSAEINRPDYLDFAESGQVYFGIIAL
notes: Parent of all clones; also called Lysine-replaced TNF; lysine-replaced mutant
binding affinity relative to recombinant TNF-α [1]: 0.5 to 2 fold
binding affinity relative to recombinant TNF-α [2]: 0.5 to 2 fold

B2: TNF mutant protein of clone No. 13 (ligand)
chain: VRSSSRTPSDMPVAHVVANPQAEGQLQWLNRRANALLANGVELRDNQLVVPSEGLYLIYSQVLFSGQGCPSTHVLLTHTISRIAVSYQTPVNLLSAIRSPCQRETPEGAEANPWYEPIYLGGVFQLEPGDRLSAEINRPDYLDFADDGQVYFGIIAL
notes: Mutant of lysine-replaced TNF, made in E. coli
binding affinity relative to recombinant TNF-α [3]: ≥ 2 fold
binding affinity relative to recombinant TNF-α [4]: 0.1 to 0.5 fold

B3: TNF mutant protein of clone No. 5 (ligand)
chain: VRSSSRTPSDMPVAHVVANPQAEGQLQWRNSHANALLANGVELRDNQLVVPSEGLYLIYSQVLFSGQGCPSTHVLLTHTISRIAVSYQTPVNLLSAIRSPCQRETPEGAEANPWYEPIYLGGVFQLEPGDRLSAEINRPDYLDFSGTGQVYFGIIAL
notes: as for B2
binding affinity relative to recombinant TNF-α [2]: 0.5 to 2 fold
binding affinity relative to recombinant TNF-α (grade) [5]: ≤ 0.001 times that of recombinant TNF-α

B5: TNF mutant protein of clone No. 12 (ligand)
chain: VRSSSRTPSDMPVAHVVANPQAEGQLQWLNRRANALLANGVELRDNQLVVPSEGLYLIYSQVLFSGQGCPSTHVLLTHTISRIAVSYQTPVNLLSAIRSPCQRETPEGAEANPWYEPIYLGGVFQLEPGDRLSAEINRPDYLDFRETGQVYFGIIAL
notes: as for B2
binding affinity relative to recombinant TNF-α [6]: 0.001 to 0.1 fold
binding affinity relative to recombinant TNF-α [1]: 0.5 to 2 fold

B8: TNF mutant protein of clone No. 10 (ligand)
chain: VRSSSRTPSDMPVAHVVANPQAEGQLQWLNRRANALLANGVELRDNQLVVPSEGLYLIYSQVLFSGQGCPSTHVLLTHTISRIAVSYQTPVNLLSAIRSPCQRETPEGAEANPWYEPIYLGGVFQLEPGDRLSAEINRPDYLDFKDTGQVYFGIIAL
notes: as for B2
binding affinity relative to recombinant TNF-α [3]: ≥ 2 fold
binding affinity relative to recombinant TNF-α [6]: 0.001 to 0.1 fold

B10: TNF mutant protein of clone No. 4 (ligand)
chain: VRSSSRTPSDMPVAHVVANPQAEGQLQWKNAGANALLANGVELRDNQLVVPSEGLYLIYSQVLFSGQGCPSTHVLLTHTISRIAVSYQTPVNLLSAIRSPCQRETPEGAEANPWYEPIYLGGVFQLEPGDRLSAEINRPDYLDFASTGQVYFGIIAL
notes: as for B2
binding affinity relative to recombinant TNF-α [2]: 0.5 to 2 fold
binding affinity relative to recombinant TNF-α (grade) [5]: ≤ 0.001 times that of recombinant TNF-α

The next lines start with results.

binding affinity relative to recombinant TNF-α [4]: 0.1 to 0.5 fold
binding affinity relative to recombinant TNF-α [1]: 0.5 to 2 fold
B4: TNF mutant protein of clone No. 14 (ligand)
chain: VRSSSRTPSDMPVAHVVANPQAEGQLQWLNRRANALLANGVELRDNQLVVPSEGLYLIYSQVLFSGQGCPSTHVLLTHTISRIAVSYQTPVNLLSAIRSPCQRETPEGAEANPWYEPIYLGGVFQLEPGDRLSAEINRPDYLDFANDGQVYFGIIAL
notes: as for B2

binding affinity relative to recombinant TNF-α [7]: ≥ 2 fold
binding affinity relative to recombinant TNF-α [1]: 0.5 to 2 fold
B6: TNF mutant protein of clone No. 31 (ligand)
chain: VRSSSRTPSDMPVAHVVANPQAEGQLQWLNRRANALLANGVELRDNQLVVPSEGLYLIYSQVLFSGQGCPSTHVLLTHTISRISKTYSHPVNLLSAIRSPCQRETPEGAEANPWYEPIYLGGVFQLEPGDRLSAEINRPDYLDFAESGQVYFGIIAL
notes: as for B2

binding affinity relative to recombinant TNF-α [7]: ≥ 2 fold
binding affinity relative to recombinant TNF-α (grade) [5]: ≤ 0.001 times that of recombinant TNF-α
B7: TNF mutant protein of clone No. 35 (ligand)
chain: VRSSSRTPSDMPVAHVVANPQAEGQLQWLNRRANALLANGVELRDNQLVVPSEGLYLIYSQVLFSGQGCPSTHVLLTHTISRITPAINRPVNLLSAIRSPCQRETPEGAEANPWYEPIYLGGVFQLEPGDRLSAEINRPDYLDFAESGQVYFGIIAL
notes: Mutant of lysine-replaced TNF, made in E. coli; also called TNF antagonist of clone No. 35
Viability (%) of L-M cells, 10 ng/ml TNF-α + 1,000 ng/ml TNF antagonist (17 without antagonist) [8]: 43%
Viability (%) of L-M cells, 10 ng/ml TNF-α + 10,000 ng/ml TNF antagonist (17 without antagonist) [8]: 58%
Viability (%) of L-M cells, 10 ng/ml TNF-α + 100,000 ng/ml TNF antagonist (17 without antagonist) [8]: 61%
Viability (%) of L-M cells, 10 ng/ml TNF-α + 500,000 ng/ml TNF antagonist (17 without antagonist) [8]: 64%
Viability (%) of HEp-2 cells, 10 ng/ml TNF-α + 1,000 ng/ml TNF antagonist (9 without antagonist) [9]: 10%
Viability (%) of HEp-2 cells, 10 ng/ml TNF-α + 10,000 ng/ml TNF antagonist (9 without antagonist) [9]: 18%
Viability (%) of HEp-2 cells, 10 ng/ml TNF-α + 100,000 ng/ml TNF antagonist (9 without antagonist) [9]: 86%
Viability (%) of HEp-2 cells, 10 ng/ml TNF-α + 500,000 ng/ml TNF antagonist (9 without antagonist) [9]: 103%

binding affinity relative to recombinant TNF-α [10]: 0.001 to 0.1 fold
binding affinity relative to recombinant TNF-α [4]: 0.1 to 0.5 fold
B9: TNF mutant protein of clone No. 15 (ligand)
chain: VRSSSRTPSDMPVAHVVANPQAEGQLQWLNRRANALLANGVELRDNQLVVPSEGLYLIYSQVLFSGQGCPSTHVLLTHTISRITNHYSNPVNLLSAIRSPCQRETPEGAEANPWYEPIYLGGVFQLEPGDRLSAEINRPDYLDFAESGQVYFGIIAL
